Measured values taken from patent US20170369571A1 (AbbVie / Abbott, published 2017).

Experiments:
[1] = biological target: human SEZ6 on patient-derived NTX tumor cells (human) (UniProt Q53EL9); experiment: flow cytometry, LU86 NTX tumor cells, dot plot CD324 against MOPC isotype control
[2] = biological target: human SEZ6 on patient-derived NTX tumor cells (human) (UniProt Q53EL9); experiment: flow cytometry, LU64 NTX tumor cells, dot plot CD324 against MOPC isotype control, gate at 10^3
[3] = biological target: human SEZ6 on patient-derived NTX tumor cells (human) (UniProt Q53EL9); experiment: flow cytometry, LU117 NTX tumor cells, dot plot CD324 against MOPC isotype control, gate at 10^3
[4] = biological target: human SEZ6 overexpressed on HEK-293T cells (human, UniProt Q53EL9 20-994); experiment: cell-based or functional assay
[5] = biological target: human SEZ6 on patient-derived NTX tumor cells (human) (UniProt Q53EL9); experiment: flow cytometry, LU64 NTX tumor cells, dot plot CD324 against SC17.42, gate at 10^3
[6] = biological target: human SEZ6 on patient-derived NTX tumor cells (human) (UniProt Q53EL9); experiment: flow cytometry on LU100 NTX tumor cells; FMO (MFI) of the same line 289
[7] = biological target: T1, cynomolgus SEZ6 extracellular domain displayed on yeast (cynomolgus, UniProt Q53EL9 23-925 (human entry)); experiment: assay not given
T1 construct: also called cSEZ6; cynomolgus SEZ6 ECD
T1 chain: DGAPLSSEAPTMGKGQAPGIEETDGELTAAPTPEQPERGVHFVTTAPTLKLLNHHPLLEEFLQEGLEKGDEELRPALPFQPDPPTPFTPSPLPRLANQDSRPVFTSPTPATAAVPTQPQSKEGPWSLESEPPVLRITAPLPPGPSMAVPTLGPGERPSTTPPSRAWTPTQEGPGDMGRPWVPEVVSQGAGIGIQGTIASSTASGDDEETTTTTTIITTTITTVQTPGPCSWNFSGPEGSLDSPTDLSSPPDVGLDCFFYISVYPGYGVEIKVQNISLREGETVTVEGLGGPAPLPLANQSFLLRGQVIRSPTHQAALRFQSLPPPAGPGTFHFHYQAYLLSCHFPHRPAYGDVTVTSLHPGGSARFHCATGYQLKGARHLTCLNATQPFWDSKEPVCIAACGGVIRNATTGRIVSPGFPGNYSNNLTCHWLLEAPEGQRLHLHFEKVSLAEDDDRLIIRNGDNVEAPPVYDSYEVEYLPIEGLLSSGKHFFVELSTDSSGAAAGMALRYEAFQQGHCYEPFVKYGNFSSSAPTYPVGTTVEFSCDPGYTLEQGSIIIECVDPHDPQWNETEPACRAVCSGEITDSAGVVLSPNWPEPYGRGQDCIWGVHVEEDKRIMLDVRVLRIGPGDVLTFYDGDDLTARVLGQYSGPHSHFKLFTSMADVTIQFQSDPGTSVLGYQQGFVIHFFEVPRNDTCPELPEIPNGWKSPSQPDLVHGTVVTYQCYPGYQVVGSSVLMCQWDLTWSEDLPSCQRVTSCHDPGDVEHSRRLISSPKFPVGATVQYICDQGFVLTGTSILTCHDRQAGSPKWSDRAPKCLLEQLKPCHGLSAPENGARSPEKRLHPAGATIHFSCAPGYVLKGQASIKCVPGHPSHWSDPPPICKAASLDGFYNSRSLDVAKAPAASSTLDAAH

[8] = biological target: T2, recombinant rat SEZ6 ECD with 9-Histidine tag (rat, UniProt Q7TSK2 20-922 (mouse entry)); experiment: assay not given
T2 construct: also called rSEZ6-ECD-His; rat recombinant SEZ6-His
T2 chain: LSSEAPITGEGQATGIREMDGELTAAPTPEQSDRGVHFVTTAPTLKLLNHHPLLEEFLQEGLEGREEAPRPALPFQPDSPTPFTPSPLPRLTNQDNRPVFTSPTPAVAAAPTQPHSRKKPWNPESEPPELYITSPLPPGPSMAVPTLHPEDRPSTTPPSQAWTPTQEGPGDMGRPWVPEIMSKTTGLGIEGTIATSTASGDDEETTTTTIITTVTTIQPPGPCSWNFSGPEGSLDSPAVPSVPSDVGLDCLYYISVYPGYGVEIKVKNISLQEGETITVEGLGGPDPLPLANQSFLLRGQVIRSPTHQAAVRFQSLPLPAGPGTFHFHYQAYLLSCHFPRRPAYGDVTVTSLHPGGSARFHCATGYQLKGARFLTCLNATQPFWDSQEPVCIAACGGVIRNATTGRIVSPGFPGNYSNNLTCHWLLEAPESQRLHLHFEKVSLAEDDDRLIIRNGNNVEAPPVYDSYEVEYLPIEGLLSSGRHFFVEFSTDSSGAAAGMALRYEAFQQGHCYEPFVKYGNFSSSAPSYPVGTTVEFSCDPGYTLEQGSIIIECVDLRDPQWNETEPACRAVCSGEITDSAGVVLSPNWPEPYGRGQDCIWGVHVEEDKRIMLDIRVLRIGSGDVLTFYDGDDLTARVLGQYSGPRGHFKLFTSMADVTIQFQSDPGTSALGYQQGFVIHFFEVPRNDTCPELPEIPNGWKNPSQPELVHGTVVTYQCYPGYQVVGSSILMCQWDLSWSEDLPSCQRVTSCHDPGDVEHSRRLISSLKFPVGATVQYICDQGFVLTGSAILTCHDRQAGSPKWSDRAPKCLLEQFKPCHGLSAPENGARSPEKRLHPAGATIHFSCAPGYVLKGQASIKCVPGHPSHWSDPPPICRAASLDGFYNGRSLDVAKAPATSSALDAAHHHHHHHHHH

MOPC (antibody)
% of cells CD324+ and MOPC+ (upper right quadrant) [1]: 0.483% | % of cells CD324- and MOPC+ (lower right quadrant) [1]: 0.014% | % of cells CD324+ and MOPC+ (upper right quadrant) [2]: 0.597% | % of cells CD324+ and MOPC+ (upper right quadrant) [3]: 0.347% | % of cells CD324- and MOPC+ (lower right quadrant) [3]: 0.05%

B1: hSC17.17-ADC1 (antibody, V domains shown)
VH: QVQLVQSGAEVKKPGASVKVSCKASGYTFTDYNMHWVRQAPGQGLEWMGEINPNIGGTGYNQKFKGRVTMTRDTSISTAYMELSRLRSDDTAVYYCARTYSYYSYEFAYWGQGTLVTVSS
VL: EIVLTQSPATLSLSPGERATLSCSASSSVSYMHWYQQKPGQAPRLLIYDTSKLPSGIPARFSGSGSGTDFTLTISSLEPEDFAVYYCQQWSSTPPTFGQGTKLEIK
modifications: PBD dimer (ADC1) through a maleimido linker on reduced Cys residues
in vitro cytotoxicity, IC50 [4]: 11 nM

B2: SC17.42 (antibody, from a related filing, V domains shown)
VH: DVKLVESGGGLVRPGGSLKLSCAASGFTFSRYTMSWVRQTPEKRLEWAATINSGGSNTYYPDSVKGRFTISRDNAKNTLFLQMSSLKSEDTAMYYCTNGNHWGQGTTLTVSS
VL: ENVLTQSPAIMSASPGEKVTMTCSASSSVNYMYWYQQKSSTSPKLWIYDTSKLTSGVPGRFSGSGSGNSYSLTISNMEAEDVATYYCFQGSGYPLTFGSGTKLEIK
% of cells CD324+ and SC17.42+ (upper right quadrant) [5]: 27.7% | % of cells CD324- and SC17.42+ (lower right quadrant) [5]: 0.637% | Tumor (MFI) [6]: 1400

B3: SC17.46 (antibody, V domains shown)
VH: QVQLQQPGAELVKPGASMKLSCKASGYTFTSYWINWVKQRPGQGLEWIGNIFPDTTTTNYNEKFKSKATLTVDTSSSTAYMQLSSLTSDDSAVYYCAREYYDGTYDAMDYWGQGTSVTVS
VL: SFVMTQTPKFLLVSAGDRVTITCKASQSVNNDVAWYQQKPGQSPKLLIYYASNRYTGVPDRFTGSGYGTDFTFTISTVQAEDLAVYFCQQDYSSPRTFGGGTKLEIK
notes: murine mAb
binding result [7]: no binding | binding result [8]: no binding
